From PMC9599917, “Reshaping the Binding Pocket of the Neurotransmitter:Solute Symporter (NSS) Family Transporter SLC6A14 (ATB^0,+) Selectively Reduces Access for Cationic Amino Acids and Derivatives” (Biomolecules, 2022)

B1: SLC6A14 (ATB0,+) (Homo sapiens) (protein)
chain: MDKLKCPSFFKCREKEKVSASSENFHVGENDENQDRGNWSKKSDYLLSMIGYAVGLGNVWRFPYLTYSNGGGAFLIPYAIMLALAGLPLFFLECSLGQFASLGPVSVWRILPLFQGVGITMVLISIFVTIYYNVIIAYSLYYMFASFQSELPWKNCSSWSDKNCSRSPIVTHCNVSTVNKGIQEIIQMNKSWVDINNFTCINGSEIYQPGQLPSEQYWNKVALQRSSGMNETGVIVWYLALCLLLAWLIVGAALFKGIKSSGKVVYFTALFPYVVLLILLVRGATLEGASKGISYYIGAQSNFTKLKEAEVWKDAATQIFYSLSVAWGGLVALSSYNKFKNNCFSDAIVVCLTNCLTSVFAGFAIFSILGHMAHISGKEVSQVVKSGFDLAFIAYPEALAQLPGGPFWSILFFFMLLTLGLDSQFASIETITTTIQDLFPKVMKKMRVPITLGCCLVLFLLGLVCVTQAGIYWVHLIDHFCAGWGILIAAILELVGIIWIYGGNRFIEDTEMMIGAKRWIFWLWWRACWFVITPILLIAIFIWSLVQFHRPNYGAIPYPDWGVALGWCMIVFCIIWIPIMAIIKIIQAKGNIFQRLISCCRPASNWGPYLEQHRGERYKDMVDPKKEADHEIPTVSGSRKPE
notes: human SLC6A14 expressed in Xenopus laevis oocytes
B2: SLC6A14 (ATB0,+) (Homo sapiens; V128F) (protein)
chain: MDKLKCPSFFKCREKEKVSASSENFHVGENDENQDRGNWSKKSDYLLSMIGYAVGLGNVWRFPYLTYSNGGGAFLIPYAIMLALAGLPLFFLECSLGQFASLGPVSVWRILPLFQGVGITMVLISIFFTIYYNVIIAYSLYYMFASFQSELPWKNCSSWSDKNCSRSPIVTHCNVSTVNKGIQEIIQMNKSWVDINNFTCINGSEIYQPGQLPSEQYWNKVALQRSSGMNETGVIVWYLALCLLLAWLIVGAALFKGIKSSGKVVYFTALFPYVVLLILLVRGATLEGASKGISYYIGAQSNFTKLKEAEVWKDAATQIFYSLSVAWGGLVALSSYNKFKNNCFSDAIVVCLTNCLTSVFAGFAIFSILGHMAHISGKEVSQVVKSGFDLAFIAYPEALAQLPGGPFWSILFFFMLLTLGLDSQFASIETITTTIQDLFPKVMKKMRVPITLGCCLVLFLLGLVCVTQAGIYWVHLIDHFCAGWGILIAAILELVGIIWIYGGNRFIEDTEMMIGAKRWIFWLWWRACWFVITPILLIAIFIWSLVQFHRPNYGAIPYPDWGVALGWCMIVFCIIWIPIMAIIKIIQAKGNIFQRLISCCRPASNWGPYLEQHRGERYKDMVDPKKEADHEIPTVSGSRKPE
notes: human SLC6A14-V128F expressed in Xenopus laevis oocytes
B3: SLC6A14 (ATB0,+) (Homo sapiens; V128I) (protein)
chain: MDKLKCPSFFKCREKEKVSASSENFHVGENDENQDRGNWSKKSDYLLSMIGYAVGLGNVWRFPYLTYSNGGGAFLIPYAIMLALAGLPLFFLECSLGQFASLGPVSVWRILPLFQGVGITMVLISIFITIYYNVIIAYSLYYMFASFQSELPWKNCSSWSDKNCSRSPIVTHCNVSTVNKGIQEIIQMNKSWVDINNFTCINGSEIYQPGQLPSEQYWNKVALQRSSGMNETGVIVWYLALCLLLAWLIVGAALFKGIKSSGKVVYFTALFPYVVLLILLVRGATLEGASKGISYYIGAQSNFTKLKEAEVWKDAATQIFYSLSVAWGGLVALSSYNKFKNNCFSDAIVVCLTNCLTSVFAGFAIFSILGHMAHISGKEVSQVVKSGFDLAFIAYPEALAQLPGGPFWSILFFFMLLTLGLDSQFASIETITTTIQDLFPKVMKKMRVPITLGCCLVLFLLGLVCVTQAGIYWVHLIDHFCAGWGILIAAILELVGIIWIYGGNRFIEDTEMMIGAKRWIFWLWWRACWFVITPILLIAIFIWSLVQFHRPNYGAIPYPDWGVALGWCMIVFCIIWIPIMAIIKIIQAKGNIFQRLISCCRPASNWGPYLEQHRGERYKDMVDPKKEADHEIPTVSGSRKPE
notes: human SLC6A14-V128I expressed in Xenopus laevis oocytes

Columns and labels:
Assay type in all cases: cell-based, Homo sapiens
[1] = substrate: N[C@@H](CO)C(=O)O; experiment: two-electrode voltage clamp in oocytes (Km); radiolabelled uptake; details: Na+ and Cl-
[2] = substrate: N=C(N)NCCC[C@H](N)C(=O)O; experiment: two-electrode voltage clamp in oocytes (Km); competition with [3H]serine uptake; details: Na+ and Cl- substrate binding pocket, competes with serine; lost in V128F
[3] = substrate: N=C(N)NCCC[C@H](N)C(=O)O; experiment: two-electrode voltage clamp in oocytes (Km); details: Na+ and Cl-
[4] = substrate: N[C@@H](CO)C(=O)O; experiment: two-electrode voltage clamp in oocytes (Km); radiolabelled uptake; details: Na+ and Cl-; remark: listed apart in the source
Source text: two-electrode voltage clamp in oocytes (Km); radiolabelled uptake on SLC6A14 (ATB0,+) | In SLC6A14-V128I, the affinity for serine increased by five-fold

Protein | Km [1] [µM] | Km [2] [µM] | Km [3] [µM] | Km [4] [µM]
B1 | 106 ± 5 | 91 ± 11 |  | 
B2 | 142 ± 11 |  |  | 
B3 |  |  | 60 ± 8 | 20 ± 3
